Source: patent US9809653B2, “Anti-LAMP1 antibodies and antibody drug conjugates, and uses thereof” (SANOFI, priority 2012, dated 2017)
Where two headings read alike, the source gives them in different places.

T1: human LAMP1 expressed at the cell surface of recombinant HCT116 (HCT116 huLAMP1 clone 8) (Homo sapiens, UniProt P11279)
T1 construct: full length human and cynomolgus monkey LAMP1 expressed at the cell surface of a recombinant cell line, wherein the cell line may be HCT116; expressed in transfected cells
T1 sequence (P11279 29-417): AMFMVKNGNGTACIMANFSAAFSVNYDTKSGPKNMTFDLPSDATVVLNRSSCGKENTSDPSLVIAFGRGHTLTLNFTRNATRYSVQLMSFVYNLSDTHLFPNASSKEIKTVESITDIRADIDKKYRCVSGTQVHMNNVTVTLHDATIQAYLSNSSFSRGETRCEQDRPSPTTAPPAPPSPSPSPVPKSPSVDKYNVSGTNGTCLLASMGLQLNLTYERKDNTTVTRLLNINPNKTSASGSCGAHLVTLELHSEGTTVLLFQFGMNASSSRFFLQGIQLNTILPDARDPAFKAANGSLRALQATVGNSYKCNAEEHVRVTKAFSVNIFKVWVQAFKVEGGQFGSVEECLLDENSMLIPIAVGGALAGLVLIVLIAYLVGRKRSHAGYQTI

T2: Hybrid LAMP1 / glycan-deleted LAMP1 transmembrane proteins (Mus musculus, UniProt P11438, A146K/E181G/G176S/K100R/K140R/K180R/L93T/N144D/N177S/S175N/T102A/Y92H)
T2 construct: expressed in transfected cells; host or cells: 293-F (HEK293-derived), transient transfection
T2 sequence (P11438 with tags, fused parts or gaps Y92H/L93T/K100R/T102A/K140R/N144D/A146K/S175N/G176S/N177S/K180R/E181G): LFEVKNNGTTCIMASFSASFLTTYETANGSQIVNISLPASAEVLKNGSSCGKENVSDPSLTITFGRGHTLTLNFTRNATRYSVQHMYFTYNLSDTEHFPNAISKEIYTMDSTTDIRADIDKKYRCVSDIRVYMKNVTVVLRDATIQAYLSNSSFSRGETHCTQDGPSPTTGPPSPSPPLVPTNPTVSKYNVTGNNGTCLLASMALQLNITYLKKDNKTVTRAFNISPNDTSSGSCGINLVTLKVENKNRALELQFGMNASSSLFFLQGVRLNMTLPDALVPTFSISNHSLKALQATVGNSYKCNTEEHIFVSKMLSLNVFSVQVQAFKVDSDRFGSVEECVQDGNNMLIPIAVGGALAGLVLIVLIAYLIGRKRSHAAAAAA

B1: MAb1: murine monoclonal anti-LAMP1 antibody, VH SEQ ID NO: 1, VL SEQ ID NO: 5 (antibody, V domains shown)
VH: QVQLQQSGAELVKPGASVKMSCKASGYIFTNYNIHWVKKSPGQGLEWIGAIYPGNGDAPYSQKFKDKATLTADKSSSTTYMQLSRLTSEDSAVYYCVRANWDVAFAYWGQGTLVSVSA
VL: DIQMTQSPPSLSASLGGKVTITCKASQDIDRYMAWYQDKPGKGPRLLIHDTSTLQPGIPSRFSGSGSGRDYSFSISNLEPEDIATYYCLQYDNLWTFGGGTKLEIK
modifications: Antibody Fragment; antibody fragment
B2: MAb2: murine monoclonal anti-LAMP1 antibody, VH SEQ ID NO: 8, VL SEQ ID NO: 12 (antibody, V domains shown)
VH: QVQLQQSAAELARPGASVKMSCKASGYTFTSYTMHWVKQRPGQGLEWIGYFNPSSGYPEYNQKFKDKTTLTADKSSNTAFIQLNSLTSEDSAVYYCSRGYYYGSRGYALDFWGQGASVTVSS
VL: NIVLTQSPVSLAVSLGQRATISCRASESVDINGNTFMHWYQQKPGQSPKLVIYAASNIESGVPARFSGSGSSTDFTFTIDPVEADDVATYYCQQNIEDPWTFGGGTKVEIK
modifications: antibod fragment; antibody fragment

Legend:
[1] = test system: cynomolgus monkey LAMP1 protein (SEQ ID NO: 29); experiment: ELISA on cynomolgus monkey LAMP1; assay type: binding; details: FIG. 3
Experimental: Extracellular domain of LAMP1 of human (Ala29-Met382 of SEQ ID NO: 24) and cynomolgus monkey LAMP1 (Ala27-Met380 of SEQ ID NO: 39) were prepared as described in example 6.2. […] The antibody binding was visualized by adding TMB-H2O2 buffer and read at a wavelength of 450 nm.
Antibody MAb4 was assessed for its ability to bind primate LAMP1 protein by enzyme-linked immunosorbent assay (ELISA) assay as described in example 4.7 and EC50 values determined as described in example 6.2.

[2] = target: T1, human LAMP1 expressed at the cell surface of recombinant HCT116 (HCT116 huLAMP1 clone 8); experiment: FACS on recombinant HCT116 stable clones expressing human LAMP1; assay type: binding
Experimental: HCT116 cells were infected by a lentiviral vector allowing stable integration of the human or the cynomolgus LAMP1 CDS in genomic DNA of cells. Individual clones with different densities of human or cynomolgus LAMP1 cell surface localization were derived from a pool of HCT116 infected cells. […] 100 μL/well of goat anti-human IgG conjugated with Alexa488 (Invitrogen; #A11013) was added for 1 h at 4° C. and washed two times with PBS 1% BSA. The antibody binding was evaluated after centrifugation and resuspension of cells in 100 μl fixing solution (paraformaldehyde at 4% in PBS). Samples were read using Galaxy® Flow Cytometry System (Partec). EC50 values were estimated using BIOST@T-SPEED software.
100 μL/well of goat anti-mouse IgG conjugated with Alexa647 (Invitrogen; #A2135) was added for 45 min at 4° C. and washed three times with PBS 1% BSA. The antibody binding was evaluated after centrifugation and re-suspension of cells by adding 200 μl/well PBS 1% BSA and read using Guava® easyCyte™ 8HT Flow Cytometry System. EC50 values were estimated using BIOST@T-SPEED software.
HCT116 stable clone was obtained as described above. […]
DM4-SPDB-huMAb1_1 was assessed by flow cytometry for its ability to bind to human LAMP1 or cynomolgus LAMP1 proteins expressed respectively at the surface of HCT116 or HEK293 stable clones, both obtained as described in the protocol of example 4.7. […]

[3] = target: T2, Hybrid LAMP1 / glycan-deleted LAMP1 transmembrane proteins; experiment: Binding onto membrane-anchored hybrid or mutated LAMP1 proteins (293-F cells) by flow cytometry; design: species or system human/mouse; details: pXL6092 mLAMP1_hseq6-9-11_ΔGYQTI; Table 17 Experiment no2
Experimental: Different LAMP1 proteins were expressed at the cell membrane of HEK293 cells after transient expression from mammalian plasmids encoding the entire coding sequence of LAMP1 deleted of the intracellular lysosome-targeting motif GYQTI and substituted by a 5-Ala repeat sequence.
Two days post transfection cells were processed, analyzed by flow cytometry (Guava® easyCyte™ 8HT) as mentioned in example 4.7, and the mean fluorescence was recorded. This fluorescence represents a semi-quantitative assessment of binding.

[4] = test system: hybrid between murine and human LAMP1 domains; experiment: Epitope ELISA on human/mouse hybrid LAMP1 extracellular domains; assay type: binding
Description: The high level of glycosylation of the antigen required a specific approach to determine the binding site of the anti-LAMP1 mAbs on LAMP1. […] This absence of binding was used to design several chimeric LAMP1 proteins in which one or several of the LAMP1 domains (Loop1-Loop4) in the human construct were replaced by the murine counterpart. The absence of binding once the binding site of the antibody was replaced by the murine counterpart allowed for identification of the antibody binding side.

[5] = read-out: EC50 (nM) Loop1-2: hLAMP1 Loop3-4: mLAMP1
[6] = read-out: EC50 (nM) Loop1-3: hLAMP1 Loop4: mLAMP1

Sequence of cynomolgus monkey LAMP1 protein (SEQ ID NO: 29) (as listed by the source): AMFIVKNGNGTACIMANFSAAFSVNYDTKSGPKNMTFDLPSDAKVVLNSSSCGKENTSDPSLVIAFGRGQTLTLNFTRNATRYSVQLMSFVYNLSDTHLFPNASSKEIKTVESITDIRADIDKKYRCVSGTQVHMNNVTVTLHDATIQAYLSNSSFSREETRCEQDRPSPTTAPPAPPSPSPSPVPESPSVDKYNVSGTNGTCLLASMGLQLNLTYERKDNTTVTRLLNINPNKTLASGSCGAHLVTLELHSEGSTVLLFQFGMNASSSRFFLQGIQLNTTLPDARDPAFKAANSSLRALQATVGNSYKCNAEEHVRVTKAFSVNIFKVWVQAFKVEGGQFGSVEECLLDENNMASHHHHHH

Molecule	Binding affinity, cynomolgus monkey LAMP1 versus human LAMP1 [1]	EC50 [2] [nM]	Binding call [3]	Mean fluorescence [3]	EC50 (nM) Loop1-2: mLAMP1 Loop3-4: hLAMP1 [4]	EC50 [4, 5] [nM]	EC50 [4, 6] [nM]	EC50 ([4]; read-out: EC50 (nM) Loop1: mLAMP1 Loop2-4: hLAMP1) [nM]	EC50 (nM) Loop1: mLAMP1 Loop2-4: hLAMP1 [4]
B1	in the same range	4.9	Full binding	499	No binding	0.18	0.16	0.15	–
B2	–	6.3	–	–	No binding	0.25	0.25	–	No binding
